Measured values published in article PMC2198872.

Target: actin (filamentous actin from chicken pectoralis) (chicken) (UniProt P68139)
Assay: laser trap

Substance: M5HMM(tag) with calmodulin (from UniProt Q99104 1-1098; P0DP23 1-149) (complex)
- displacement duration (t on, time attached to actin): 100 ms

Substance: baculovirus-expressed (-)insert isoform of smooth muscle myosin HMM (from UniProt P10587 1-1979) (complex)
- displacement duration, step 1 of double step events: 468 ms
- displacement duration, step 2 of double step events: 400 ms

Substance: M5HMM containing only bound calmodulin (from UniProt Q99104 1-1098; P0DP23 1-149) (complex)
- displacement duration (t on, time attached to actin): 120 ms
